# From patent publication US20250289871A1
# Biological target: SARS-CoV-2 Delta + T51I + T95I spike protein (authentic virus) (SARS-CoV-2), P0DTC2
# Test: cell-based or functional assay
binder,measurement,value
"RQ43-GL-H-LO1 (TM-YTE) (antibody, V domains shown) VH: EVQLVESGGGLVQPGRSLRLSCAASGFPFDDYAIHWVRLAPGKGLEWVSSISWDSGSIGYADSVKGRFTISRDNAKNSLYLQMNSLRAEDTALYYCAKGAFPGYSSGWYYGLEVWGQGTTVTVSS VL: QSVVTQPPSASGSLGQSVTISCTGTSSDVGGYNYVSWYQQHPGKAPKLMIFEVSKRPSGVPDRFSGSKSGNTASLTVSGLQAEDEADYYCSSYAGNKGVFGGGTKLTVL",Authentic Virus Neutralization IC50,0.021 µg/mL
